In US8987424B2, “CA6 antigen-specific cytotoxic conjugate and methods of using the same” (ImmunoGen, Inc., priority 2003, dated 2015):

Columns and labels:
[1] = test system: HPAC tumor xenografts; assay: Subcutaneous HPAC xenograft efficacy study; assay type: in vivo, SCID mice
Experimental: OVCAR5 (FIG. 26A and FIG. 26B), TOV-21 G (FIG. 26C and FIG. 26D), HPAC (FIG. 26E and FIG. 26F), and HeLa (FIG. 26G and FIG. 26H) cells were inoculated on day 0, and immunoconjugate treatments were given on day 6 and 13. PBS control animals were euthanized once tumor volumes exceeded 1000 mm^3. The conjugate was given at a dose of 600 μg/kg DM1, corresponding to an antibody concentration 27.7 mg/kg. Tumor volume (FIG. 26A, FIG. 26C, FIG. 26E, and FIG. 26G) and body weight (FIG. 26B, FIG. 26D, FIG. 26F, and FIG. 26H) of the mice were monitored during the course of the study.
muDS6-DM 1 activity was further tested on a panel of subcutaneous xenograft models (see FIG. 26). […] OVCAR5 cells and TOV-21 G are ovarian tumor cell lines; HPAC is a pancreatic tumor cell line; HeLa is a cervical tumor cell line. OVCAR5 and TOV-21G cells have low surface CA6 expression; HeLa cells have an intermediate level of surface CA6 expression; HPAC cells have a high CA6 density of surface expression. TOV-21G and HPAC cells are maytansine sensitive; OVCAR5 and HeLa cells are 2-7-fold less maytansine sensitive.
The 4 cell-lines were grown in vitro, collected, and 1×10^7 cells in a 100 μL of serum free medium were injected under the right shoulder of each mouse (6 mice per model) and allowed to grow for 6 days to an average tumor volume of 57.6±6.7 and 90.2±13.4 mm^3 for the test and control groups respectively of OVCAR5, 147.1±29.6 and 176.2±18.9 mm^3 for the test and control groups respectively of HPAC, 194.3±37.2 and 201.7±71.7 mm^3 for the test and control groups respectively of HeLa, and 96.6±22.8 and 155.6±13.4 mm^3 for the test and control groups respectively of TOV-21G, at which time drug treatment was initiated. For each model three control mice were treated with two weekly doses of PBS and three test mice were treated with two weekly doses of conjugate (600 μg/kg DM1) intravenously. Toxic responses were monitored daily during the treatment and tumor volumes and body weights were monitored throughout the study. […]

[2] = test system: Caov-3 cells; assay: Flow cytometry binding assay; parameters: species or system human
Experimental: (§1) Flow cytometric analysis was used to localize the DS6 epitope, CA6, to the cell surface. Human cell lines were obtained from the American Type Culture Collection (ATCC) with the exception of OVCAR5 (Kearse et al., Int. J. Cancer 88(6):866-872 (2000)), OVCAR8 and IGROV1 cells (M. Seiden, Massachusetts General Hospital). All cells were grown in RPMI 1640 supplemented with 4 mM L-glutamine, 50 U/ml penicillin, 50 μg/ml streptomycin (Cambrex Bio Science, Rockland, Me.) and 10% v/v fetal bovine serum (Atlas Biologicals, Fort Collins, Colo.), referred hereafter as culture media. Cells were maintained in a 37° C., 5% CO2 humidified incubator.
Cells ([…]) were incubated, on ice for 3-4 h, with serially diluted concentrations of the DS6 antibody prepared in FACS buffer (2% goat serum, RPMI) into 96-well plates. […] After two washes, the cells were fixed with 1% formaldehyde and analyzed on a flow cytometer.
The muDS6 antibody (8 mg/ml) was modified using 8-fold molar excess of N-succinimidyl-4-(2-pyridyldithio) pentanoate (SPP) to introduce dithiopyridyl groups. […] The degree of modification was determined by measuring the absorbance of the antibody at 280 nm and the DTT released 2-mercaptopyridine (Spy) at 280 and 343 nm. […] The number of DM1 molecules linked per molecule of muDS6 was determined by measuring the absorbance at both 252 nm and 280 nm of the filtered material. […]

[3] = test system: BT-549 cells; assay: Flow cytometry binding assay; parameters: species or system human
Experimental: as §1
(§2) Cells ([…]) were incubated, on ice for 3-4 h, with serially diluted concentrations of the DS6 antibody prepared in FACS buffer (2% goat serum, RPMI) into 96-well plates. The cells were spun down in a table top centrifuge at 1500 rpm for 5 min at 4° C. After removing the media, the wells were then refilled with 150 μl of FACS buffer. The wash step was then repeated. FITC-labeled goat anti-mouse IgG (Jackson Immunoresearch) was diluted 1:100 to FACS buffer and incubated with the cells for 1 h on ice. The plate was covered in foil to prevent photobleaching of the signal. After two washes, the cells were fixed with 1% formaldehyde and analyzed on a flow cytometer.

[4] = test system: Caov-4 cells; assay: Flow cytometry binding assay; parameters: species or system human
Experimental: as §1, §2

[5] = test system: TOV-21G cells; assay: Flow cytometry binding assay; parameters: species or system human
Experimental: as §1, §2

[6] = test system: WISH cells; assay: Flow cytometry binding assay; parameters: species or system human
Experimental: as §1, §2

[7] = test system: T-47D cells; assay: Flow cytometry binding assay; parameters: species or system human
Experimental: as §1, §2

[8] = test system: OVCAR-3 cells; assay: Flow cytometry binding assay; parameters: species or system human; conditions: OVCAR3
Experimental: as §1, §2

[9] = test system: SW1990 cells; assay: Flow cytometry binding assay; parameters: species or system human
Experimental: as §1, §2

[10] = 600 μg/kg DM1, two weekly doses

Molecule | body weight [1, 10] | tumor status at day 61 [1, 10] | tumor regression ([1]; 600 μg/kg DM1 i.v., two weekly doses) | effect of conjugation on binding affinity ([2]; Caov-3 cells, versus unmodified muDS6) | MMF (average maximum relative mean fluorescence) ([2]; Caov-3) | MMF (average maximum relative mean fluorescence) [3] | MMF (average maximum relative mean fluorescence) [4] | MMF (average maximum relative mean fluorescence) [5] | MMF (average maximum relative mean fluorescence) [6] | MMF (average maximum relative mean fluorescence) [7] | MMF (maximum mean relative fluorescence) [8] | MMF (average maximum relative mean fluorescence) [9]
DS6-DM1: muDS6 antibody modified with SPP and conjugated to the maytansinoid DM1 (conjugate) VH: QAYLQQSGAELVRSGASVKMSCKASGYTFTSYNMHWVKQTPGQGLEWIGYIYPGNGATNYNQKFKGKATLTADPSSSTAYMQISSLTSEDSAVYFCARGDSVPFAYWGQGTLVTVSA VL: QIVLTQSPAIMSASPGEKVTITCSAHSSVSFMHWFQQKPGTSPKLWIYSTSSLASGVPARFGGSGSGTSYSLTISRMEAEDAATYYCQQRSSFPLTFGAGTKLELKR | no weight loss was observed | tumor-free | complete tumor regression in all mice | only a slight loss of affinity | – | – | – | – | – | – | – | –
DS6: murine anti-CA6 monoclonal antibody DS6 (ATCC deposit number PTA-4449) (antibody, V domains shown) VH: QAYLQQSGAELVRSGASVKMSCKASGYTFTSYNMHWVKQTPGQGLEWIGYIYPGNGATNYNQKFKGKATLTADPSSSTAYMQISSLTSEDSAVYFCARGDSVPFAYWGQGTLVTVSA VL: QIVLTQSPAIMSASPGEKVTITCSAHSSVSFMHWFQQKPGTSPKLWIYSTSSLASGVPARFGGSGSGTSYSLTISRMEAEDAATYYCQQRSSFPLTFGAGTKLELKR | – | – | – | – | 465.20 | 71.39 | 149.00 | 87.79 | 1133.55 | 559.58 | 21.19 | 36.17
